Substrate in series [1]: N#CO
The series is described as follows: purified protein. The note with it: 5 mM NaHCO3, pH 7.7, 27°C. Format: biochemical, Arabidopsis thaliana.

Substrate in series [2]: O=C(O)O
Put plainly: purified protein. The note with it: 5 mM KCNO, pH 7.7, 27°C.

Series [3] concerns the molecule itself. The series is described as follows: SEC; His-tagged proteins after Ni2+ affinity chromatography on a Superdex 200 10/300 GL column; molecular weight calculated against high molecular weight standards.
Substrate in series [4]: N#CO
The series is described as follows: purified protein. It is filed as biochemical, Oryza sativa. The settings on record: 5 mM NaHCO3, pH 7.7, 27°C.

B1: His-tagged recombinant AtCYN (enzyme, Arabidopsis thaliana, UniProt O22683 1-168, looked up)
chain: MEAAKKQSVTNQLLAVKSASGKTFSQLAAETGLTNVYVAQLLRRQAQLKPDTVPKLKEALPALTDELIGDMMSPPWRSYDPNLIQEPTIYRLNEAVMHFGESIKEIINEDFGDGIMSAIDFYCSVDKIKGVDGNNRVVVTLDGKYLSHSEQRTENMVSRLNLKGGTSE
notes: cyanase (AtCYN) of Arabidopsis thaliana, 168 aa, NP_188991; cDNA amplified with primers from the start codon to the stop codon, cloned into pET15b; pET15b construct (BamH I and Xho I sites); calculated monomer with tag 21.9 kDa; also called His:AtCYN; source: E. coli BL21 (DE3), purified (Ni2+ chelating column, Superdex 200); copies: 10
For B1, the Km in series [1] turned out to be 940 µM; in series [2], 790 µM. In addition, the “stoichiometry N” value in series [3] was 10.

B2: His-tagged recombinant OsCYN (enzyme, Oryza sativa, UniProt Q9FWK4 1-168, looked up)
chain: MEGGGGERAAGVVRRLMAAKAESRKSFSEIGEEAGLTNVYVAQLLRRQAQLKPETAPALRAAVPGLTDDLVALMMEPPFRSYHPDIVHEPAIYRLNEAVMHFGESIKEIINEEFGDGIMSAIDFYCSVDKVQGADGKDRVVVTFDGKYLPYSEQRSDHMMSRLTRKTS
notes: cyanase (OsCYN) of Oryza sativa (cv. Zhonghua 11), 168 aa, NP_001064827; cDNA amplified with primers from the start codon to the stop codon, cloned into pET15b; pET15b construct (BamH I and Xho I sites); calculated monomer with tag 22.0 kDa; also called His:OsCYN; source: E. coli BL21 (DE3), purified (Ni2+ chelating column, Superdex 200); copies: 10
For B2, the Km stood at 7380 µM in series [4] and 630 µM in series [2]. The “stoichiometry N” value in series [3] was 10.

Source of the values: publication PMC3070753, “Biochemical and Structural Properties of Cyanases from Arabidopsis thaliana and Oryza sativa” (PLoS ONE, 2011).
